# Assay results taken from patent US7379820 (Pfizer, dated 2008).
# T1: MBP-TRADD (full-length TRADD protein expressed as a MBP fusion) (UniProt Q15628 1-312)
# T1 construct: mature; Immobilized on 96 well plates for ELISA
# T1 sequence (looked up): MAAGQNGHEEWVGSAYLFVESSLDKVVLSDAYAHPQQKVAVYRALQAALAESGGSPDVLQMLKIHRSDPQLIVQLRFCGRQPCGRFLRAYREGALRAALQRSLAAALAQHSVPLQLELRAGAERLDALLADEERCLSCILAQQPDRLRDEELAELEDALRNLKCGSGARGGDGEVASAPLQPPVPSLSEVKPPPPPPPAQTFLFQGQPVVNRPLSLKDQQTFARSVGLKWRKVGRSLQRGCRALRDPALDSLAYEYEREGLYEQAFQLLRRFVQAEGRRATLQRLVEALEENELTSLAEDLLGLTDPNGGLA
# Target: T1, MBP-TRADD (full-length TRADD protein …)
# Assay: ELISA, MBP-TRADD immobilized on 96 well plates
# Procedure: RIP DD binding assay. RIP DD binding to TRADD was determined by an enzyme-linked immunosorbent assay (ELISA). Ninety six well plates were coated overnight at 4° C. with 200 ng of MBP-TRADD, MBP-TNFR-1 DD, or MBP-IL1RacP (interleukin-1 receptor accessory protein) in coating buffer (25 mM MOPS pH 7.5, 150 mM NaCl, 10 mM DTT, 0.02% NaN_3). The plates were then incubated in blocking buffer (10 mM MOPS pH 7.5, 150 mM NaCl, 0.05% Tween 20, 0.1% Gelatin, 0.02% NaN_3) for one hour followed by one hour incubation with the different RIP DD proteins in binding buffer (100 mM Tris pH 7.5, 140 mM NaCl, 0.1 mM EDTA, 0.2% Triton X-100, 10 mM DTT). The plates were washed 4 times in 10 mM potassium phosphate buffer pH 7.4, 0.05% Tween 20. The bound His tagged proteins were then incubated for 30 minutes in 10 mM MOPS pH 7.5, 150 mM NaCl, 0.05% Tween 20, 0.02% NaN_3 anti-6× His biotinylated anti mouse antibody and strepavidin conjugated alkaline phosphatase. The plates were washed 4 times in 10 mM potassium phosphate buffer pH 7.4, 0.05% Tween. Tropix CDP-Star/Sapphire II solution was used for the luminescent detection of alkaline phosphatase.
# Figure 4: FIGS. 4A and 4B. (A) Effect of the ionic strength on the binding of RIP-DD (30 μg/mL) to MBP-TRADD. (B) ELISA of RIP-DD binding to MBP-TRADD. MBP-TRADD was immobilized at 500 ng/well on 96 well plates. The reference at 100% is the binding of the wild type protein to MBP-TRADD. The values used for the determination of the binding percentage were obtained with ~30 μg/ml of soluble protein. Figure 4: Figure 5: FIG. 5. Sequence alignment of the death domains of FAS (SEQ ID NO:2) and RIP (SEQ ID NO:3). Identical residues and homologous residues are shaded. The helices identified from the NMR structure of FAS DD (Huang et al., 1996) are located above the sequence and the helices identified from the NMR structure of RIP DD are located below the sequence.
row,Binder,binding result
1,"RIP DD E626A (other, Single point alanine mutant of the His-tagged RIP DD construct; soluble mutant) MAIFDNTTSLTDKHLDPIRENLGKHWKNCARKLGFTQSQIDEIDHDYERDGLKAKVYQMLQKWVMREGIKGATVGKLAQALHQCSRIDLLSSLIYVSQNHHHHHHH",no binding (tested: ~30 µg/ml of soluble protein)
2,"RIP DD K599A (other, Single point alanine mutant of the His-tagged RIP DD construct) MAIFDNTTSLTDKHLDPIRENLGKHWANCARKLGFTQSQIDEIDHDYERDGLKEKVYQMLQKWVMREGIKGATVGKLAQALHQCSRIDLLSSLIYVSQNHHHHHHH",no binding (tested: ~30 µg/ml of soluble protein)
3,"RIP DD K625A (other, Single point alanine mutant of the His-tagged RIP DD construct) MAIFDNTTSLTDKHLDPIRENLGKHWKNCARKLGFTQSQIDEIDHDYERDGLAEKVYQMLQKWVMREGIKGATVGKLAQALHQCSRIDLLSSLIYVSQNHHHHHHH",no binding (tested: ~30 µg/ml of soluble protein)
4,"RIP DD K627A (other, Single point alanine mutant of the His-tagged RIP DD construct) MAIFDNTTSLTDKHLDPIRENLGKHWKNCARKLGFTQSQIDEIDHDYERDGLKEAVYQMLQKWVMREGIKGATVGKLAQALHQCSRIDLLSSLIYVSQNHHHHHHH",no binding (tested: ~30 µg/ml of soluble protein)
5,"RIP DD R603A (other, Single point alanine mutant of the His-tagged RIP DD construct; soluble mutant) MAIFDNTTSLTDKHLDPIRENLGKHWKNCAAKLGFTQSQIDEIDHDYERDGLKEKVYQMLQKWVMREGIKGATVGKLAQALHQCSRIDLLSSLIYVSQNHHHHHHH",no binding (tested: ~30 µg/ml of soluble protein)
